Source: patent US5559019

Assays:
[1] = target: SF2/ASF (wild type) (Homo sapiens (Human)) (UniProt Q07955)
[2] = target: myelin basic protein (MBP)

What does the source list for “SR protein-specific kinase, SRPK1 (enzyme)”?
Km for phosphorylation of SF2/ASF [1]: 0.07 µM; Vmax for phosphorylation of SF2/ASF [1]: 0.45 pmol per min; Km for phosphorylation of MBP [2]: 5.8 µM; Vmax for phosphorylation of MBP [2]: 0.02 pmol per min
